This note sets out measurements from patent publication US20210340273A1 (INHLBRX, published 2021).

Bounds are passed on as bounds.

Assay [1] concerns the target T1, human 5T4 (trophoblast glycoprotein), endogenous on the cell surface (human, UniProt Q13641 32-420).
T1 construct: also called TPBG; 5T4 oncofetal antigen
T1 sequence: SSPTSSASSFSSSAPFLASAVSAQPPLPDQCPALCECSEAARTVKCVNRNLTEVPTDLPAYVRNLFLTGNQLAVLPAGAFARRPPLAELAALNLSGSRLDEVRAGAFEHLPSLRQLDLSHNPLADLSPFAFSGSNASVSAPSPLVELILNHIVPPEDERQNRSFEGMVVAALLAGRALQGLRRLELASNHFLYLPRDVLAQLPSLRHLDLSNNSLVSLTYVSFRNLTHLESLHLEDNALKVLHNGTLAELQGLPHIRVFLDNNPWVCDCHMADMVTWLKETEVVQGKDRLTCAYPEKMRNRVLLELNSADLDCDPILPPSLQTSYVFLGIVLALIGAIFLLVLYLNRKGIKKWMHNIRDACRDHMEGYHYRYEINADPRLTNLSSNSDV
In words: printed as Affinity 5T4; apparent affinity from flow cytometry titration on Ovcar-5 cells. The method, then: Binding of exemplary 5T4-targeting constrained CD3 engaging constructs set forth in Table E3 to CD3 on the surface of primary T cells and 5T4 expressing cells (Ovcar-5) was assessed by flow cytometry. The T cells were primary T-cells that were negatively enriched from PBMCs isolated from healthy human donor leukopaks. Bound construct was detected with fluorophore-conjugated secondary antibodies specific for the human Fc (anti-human IgG APC secondary antibody) and binding was measured by flow cytometry. Cells incubated with secondary antibody only served as negative controls. The results, from flow cytometry histograms displaying normalized cell counts versus fluorescence at 200 nM of each construct, are shown in FIG. 4A (cx3253), FIG. 4B (cx3264), FIG. 4C (cx3497), FIG. 4D (cx3499), FIG. 4E (cx3547), FIG. 4F (cx3546), FIG. 4G (cx4224), FIG. 4H (cx4913), FIG. 4I (cx3265), […] (cx4912), FIG. 4K (cx3262), FIG. 4L (cx4911), and FIG. 4M (cx4910). […] However, as shown in the top right and bottom panels of each of the figures, the same constructs were not able to bind to T cells in isolation.
Table E4 summarizes the affinity of exemplary molecules for 5T4 or CD3, as determined from flow cytometry, in these studies.
(In flow cytometry, cells or beads pass a laser one at a time.)

Assay [2] has as its target T2, CD3 on the surface of primary human T cells or Jurkat reporter cells (human, UniProt P07766 23-207).
T2 construct: whole, on cells; also called CD3 epsilon
In words: printed as Affinity CD3; flow cytometry titration on primary human T cells.

In assay [3] the target is T3, human 5T4 construct (Hu), full 5T4 coding region fused to an intracellular Citrine tag, on transfected CHO … (human, UniProt Q13641 32-420).
T3 construct: also called fully human construct; not shown: intracellular Citrine tag
T3 sequence: T1 sequence
The assay can be described thus: flow cytometry on CHO cells transiently transfected with the 5T4 construct. The source says: (§1) In order to determine the location of the epitope recognized by these sdAbs, various mouse:human chimeric 5T4 constructs were generated, wherein various portions of the murine extracellular domain of 5T4 were replaced with that of human 5T4. The constructs were generated by grafting a nucleic acid sequence encoding the specific region of human 5T4 into the cognate region of mouse 5T4 in a mammalian expression plasmid encoding the full 5T4 coding region (extracellular domain, transmembrane domain, intracellular domain) fused to an intracellular Citrine tag. […] CHO cells were transiently transfected with these constructs to enable cell surface expression, and binding was monitored by flow cytometry.

Assay [4] has as its target T4, murine 5T4 construct (Mu), full 5T4 coding region fused to an intracellular Citrine tag, on transfected CHO … (mouse, UniProt Q9Z0L0 32-426).
T4 construct: also called fully murine construct; mouse 5T4 antigen; not shown: intracellular Citrine tag
T4 sequence: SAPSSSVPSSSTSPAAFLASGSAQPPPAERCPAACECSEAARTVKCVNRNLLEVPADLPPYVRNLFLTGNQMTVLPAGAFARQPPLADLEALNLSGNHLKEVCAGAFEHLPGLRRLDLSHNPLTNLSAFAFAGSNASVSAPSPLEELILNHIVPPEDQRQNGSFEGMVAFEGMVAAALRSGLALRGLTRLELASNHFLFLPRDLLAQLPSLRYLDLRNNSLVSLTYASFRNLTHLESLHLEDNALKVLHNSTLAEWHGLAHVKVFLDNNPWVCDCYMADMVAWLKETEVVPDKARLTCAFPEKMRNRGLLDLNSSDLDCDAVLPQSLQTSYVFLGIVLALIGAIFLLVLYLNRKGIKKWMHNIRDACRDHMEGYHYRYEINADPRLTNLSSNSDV
The assay is described as above.
Excerpt: as §1

The target in assay [5] is T5, hmc5T4.2.
T5 construct: the rest is mouse 5T4; also called chimeric hmc5T4.2; not shown: intracellular Citrine tag fused to the full coding region
T5 chain: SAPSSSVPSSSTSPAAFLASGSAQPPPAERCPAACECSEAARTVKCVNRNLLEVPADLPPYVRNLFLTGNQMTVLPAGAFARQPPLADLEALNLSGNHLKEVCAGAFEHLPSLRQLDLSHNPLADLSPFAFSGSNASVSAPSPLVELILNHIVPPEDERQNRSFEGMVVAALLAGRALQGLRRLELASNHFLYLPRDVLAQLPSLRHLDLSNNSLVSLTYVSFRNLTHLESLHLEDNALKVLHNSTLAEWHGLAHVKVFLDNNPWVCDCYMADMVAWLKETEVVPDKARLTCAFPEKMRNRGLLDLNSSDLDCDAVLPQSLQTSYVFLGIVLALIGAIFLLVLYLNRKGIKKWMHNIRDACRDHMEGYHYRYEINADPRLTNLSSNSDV
The assay is described as above.
Excerpt: as §1

The target in assay [6] is T1, human 5T4 (trophoblast glycoprotein), …. The assay can be described thus: flow cytometry, sdAb-Fc on 5T4 expressing T47D cells.
Assay [7] has as its target T4, murine 5T4 construct (Mu), full 5T4 …. In words: flow cytometry on CHO cells transfected with the fully murine 5T4 construct (Mu, FIG. 26C).
Excerpt: as §1

Assay [8] addresses T3, human 5T4 construct (Hu), full 5T4 …. The assay can be described thus: flow cytometry on CHO cells transfected with human, mouse and chimeric 5T4 constructs.
Excerpt: as §1

T2 sequence (P07766 23-207): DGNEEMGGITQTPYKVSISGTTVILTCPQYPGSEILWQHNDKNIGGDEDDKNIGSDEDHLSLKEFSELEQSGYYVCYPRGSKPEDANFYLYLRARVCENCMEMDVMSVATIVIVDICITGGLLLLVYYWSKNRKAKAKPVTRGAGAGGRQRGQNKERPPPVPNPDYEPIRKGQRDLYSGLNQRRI

B1: cx3264, 5T4-targeted constrained CD3 engaging construct with a 41BB binding domain (bispecific antibody)
chain 1: QVQLQESGGGLVQAGGSLRLSCAASRRPFSSKTMAWFRQTPGKEREFVAAVRWIGGATRYTDSVKGRFSISKDNAINTVYLQTNSLKSEDTAVYYCAAGQTWGTKFTDYSDWGQGTLVTVKPDKTHTCPPCPAPELLGGPSVFLFPPKPKDTLMISRTPEVTCVVVDVSHEDPEVKFNWYVDGVEVHNAKTKPREEQYNSTYRVVSVLTVLHQDWLNGKEYKCKVSNKALPAPIEKTISKAKGQPREPQVYTLPPCRDELTKNQVSLWCLVKGFYPSDIAVEWESNGQPENNYKTTPPVLDSDGSFFLYSKLTVDKSRWQQGNVFSCSVMHEALHNHYTQKSLSLSPTGGSGGGGIEPDIGGSGGSEVQLVESGGGLVQPGGSLRLSCAASGFTFNTYAMNWVRQAPGKCLEWVARIRSKYNNYATYYADSVKGRFTISRDDAKNTLYLQMSSLRAEDTAVYYCVRHGNFGNSYVSWFAYWGQGTLVTVKPQVQLQESGGGLVQAGGSLRLSCAASRRPFSSKTMAWFRQTPGKEREFVAAVRWIGGATRYTDSVKGRFSISKDNAINTVYLQTNSLKSEDTAVYYCAAGQTWGTKFTDYSDWGQGTLVTVKP
chain 2: not shown
In the case of B1, the Kd is 0.145 nM in assay [1] and more than 200 nM in assay [2].

B2: hz16G10v11 sdAb-Fc (Fc fusion)
chain: EVQLVESGGGEVQPGGSLRLSCAASGRPFSSYAMGWFRQAPGKERETVAAVSRNAGSSYYAESVKGRFTISRDNAKNTVYLQMSSLRAEDTAVYYCAARSAAYSRSSETYTEKHDYTYWGQGTLVTVKP
notes: Humanized variant of 16G10, linked to a human Fc; also called hz16G10v11-Fc; cx7885; not shown: human Fc
Regarding B2, the EC50 (read off the curve) (as a rule, the concentration at which the effect is half-maximal) in assay [3] is approximately 3 nM; in assay [5] it was approximately 2 nM. Further, in assay [4], the binding result is “no binding (tested: about 500 nM)”.

B3: hz14B5v17 sdAb-Fc (Fc fusion)
chain: EVQLVESGGGEVQPGGSLRLSCAASERPFGTYAMGWFRQAPGKERDLVAAVSRNAGASYYAESVKGRFTISRDNAKNTVYLQMSSLRAEDTAVYYCAARSAAYSRSSEVYTGKDEYYYWGQGTLVTVKP
notes: Humanized variant of 14B5, linked to a human Fc; not shown: human Fc
As for B3, the binding result in assay [6] was “binds”; in assay [7], “no binding”; in assay [8] it was “binds”.
